# Laboratory results reported in CN113234156A.
# T1: Mb重组蛋白 (recombinant myoglobin) (UniProt P02144)
# T1 sequence (looked up): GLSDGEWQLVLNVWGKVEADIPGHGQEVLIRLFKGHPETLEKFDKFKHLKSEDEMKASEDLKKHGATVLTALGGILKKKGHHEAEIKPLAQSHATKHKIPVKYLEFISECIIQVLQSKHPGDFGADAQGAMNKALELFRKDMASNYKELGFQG
# What was measured:
# [1] = molecular target: T1, Mb重组蛋白 (recombinant myoglobin); test: indirect ELISA; Mb coated 2 ug/mL; hybridoma supernatant 1/200
# [2] = molecular target: T1, Mb重组蛋白 (recombinant myoglobin); test: indirect ELISA; Mb coated 2 ug/mL; hybridoma supernatant 1/400
# [3] = molecular target: T1, Mb重组蛋白 (recombinant myoglobin); test: indirect ELISA; Mb coated 2 ug/mL; hybridoma supernatant 1/50
# [4] = molecular target: T1, Mb重组蛋白 (recombinant myoglobin); test: indirect ELISA; Mb coated 2 ug/mL; hybridoma supernatant 1/100
# [5] = molecular target: T1, Mb重组蛋白 (recombinant myoglobin); test: indirect ELISA; Mb coated 2 ug/mL; hybridoma supernatant 1/50; remark: listed apart in the source
OD450 [1] [OD],OD450 [2] [OD],OD450 [3] [OD],OD450 [4] [OD],OD450 [5] [OD],Binder
1.18,0.857,1.69,1.33,1.73,"鼠单克隆抗体 1E6 (antibody, V domains shown) VH: EVQLQQSGAELVKPGASVKLSCTTSGFNIKDTYIHWVRQRPEQGLEWIGNIDPANGNTKYDPEFQGKATITADTSSNTAYLHLSSLTSEDTAVYYCARVDGSRDFDYWGQGTTLTVSS VL: DIVMTQAAPSVTVTPGESVSISCRSSKSLLYSNGNTYLYWFLQRPGQSPQLLIYRMSNLASGVPDRFSGSGSGTAFTLRISRVEAEDVGVYYCMQHLEYPLTFGGGTKLELK"
1.46,1.27,1.69,1.63,1.7,"鼠单克隆抗体 9B2 (antibody, part only; not given: light chain variable domain, V domains shown, part only) VH: QVQLQQSGAALVRPGTSVKVSCKASGYAFTNYLIEWVKQRPGQGLEWIGVINPGSGGTDYNEKFKGKATLTADKSSSTAYMQLSSLTSDDSAVYFCARSSLYGSSRMDYWGQETSVTVSS"
